Measured values: patent US10005846B2, “Anti-transglutaminase 2 antibodies” (MEDICAL RESEARCH COUNCIL TECHNOLOGY, priority 2012, dated 2018)
Where a chain is given by its changes, count along the chain named.

T1: human TG2 (Homo sapiens, UniProt P21980)
T1 sequence (P21980 1-687): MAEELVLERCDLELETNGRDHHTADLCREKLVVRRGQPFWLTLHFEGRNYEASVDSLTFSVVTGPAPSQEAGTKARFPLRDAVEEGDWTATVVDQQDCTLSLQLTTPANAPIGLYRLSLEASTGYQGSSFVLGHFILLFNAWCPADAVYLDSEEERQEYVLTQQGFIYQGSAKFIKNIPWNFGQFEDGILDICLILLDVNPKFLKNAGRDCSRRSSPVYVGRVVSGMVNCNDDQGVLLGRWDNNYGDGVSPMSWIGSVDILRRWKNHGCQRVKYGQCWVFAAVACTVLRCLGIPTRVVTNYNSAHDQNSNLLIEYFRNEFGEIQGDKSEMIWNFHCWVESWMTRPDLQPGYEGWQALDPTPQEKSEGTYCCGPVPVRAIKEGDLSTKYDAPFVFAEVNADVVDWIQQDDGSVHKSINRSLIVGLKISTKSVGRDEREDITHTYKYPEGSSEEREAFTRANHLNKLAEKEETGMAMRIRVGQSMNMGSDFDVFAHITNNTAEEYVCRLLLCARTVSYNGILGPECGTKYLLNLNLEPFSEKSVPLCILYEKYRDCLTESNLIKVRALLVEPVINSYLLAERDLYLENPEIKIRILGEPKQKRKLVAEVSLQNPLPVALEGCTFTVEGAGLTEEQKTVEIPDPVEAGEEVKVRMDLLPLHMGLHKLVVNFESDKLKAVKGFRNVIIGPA

B1: cDC001: chimeric DC1 antibody: murine variable regions, human IgG1 and human kappa (antibody, V domains shown)
VH: EVQLVESGGGLVKPGGSLKLSCAASGFTLSTHAMSWVRQTPEKRLEWVATISSGGRSTYYPDSVKGRFTISRDNVKNTLYLQLSSLRSEDTAVYFCARLISTYWGQGTTLTVSS
VL: DITMTQSPSSIYASLGERVTITCKASQDINSYLTWFQQKPGKSPKILIYLVNRLVDGVPSRFSGSGSGQDYALTISSLEYEDMGIYYCLQYDDFPYTFGGGTKLEIK
B2: hBB001BB: humanised BB7 antibody (heavy chain hBB001HB, light chain hBB001KB by name) (antibody, V domains shown)
VH: EVQLLESGGGLVQPGGSLRLSCAASGIIFSSSAMSWVRQAPGKGLEWVATISSGGRSTYYPDSVKGRFTVSRDSSKNTLYLQMNSLRAEDTAVYYCAKLISPYWGQGTLVTVSS
VL: DIKMTQSPSSLSASVGDRVTITCKASQDINSYLTWFQQKPGKAPKTLIYLTNRLMDGVPSRFSGSGSGQEFLLTISSLQPEDFATYYCLQYVDFPYTFGQGTKVEIK
B3: hAB005: humanised AB1 antibody; heavy chain version RHA with light chain version RKJ (antibody, V domains shown)
VH: B2 VH with I27F, I28T, A49S, S53V, R56G, S57K, V70I, S74N, P102L
VL: B2 VL with K3Q, T46S, L50R, M55F, Q69T, E70D, L72F, V92D
B4: hAB004: humanised AB1 antibody; heavy chain version RHA with light chain version RKE (antibody, V domains shown)
VH: B2 VH with I27F, I28T, A49S, S53V, R56G, S57K, V70I, S74N, P102L
VL: EIVLTQSPSSLSASVGDRVTITCKASQDINSYLTWYQQKPGKAPKLLIYRTNRLFDGVPSRFSGSGSGTDFFFTISSLQPEDFGTYYCLQYDDFPYTFGGGTKLEIK

Biological target: T1, human TG2
Assay: Biacore (SPR) affinity, human TG2
Type: binding
Parameters: purchased Zedira GmbH T002
Settings: +Ca^2+ (1 mM CaCl2 running buffer; includes rows without a Ca mark)
Protocol: (§1) Recombinant human TG2 was obtained from Zedira GmbH (cat. no.: T002). Recombinant cynomolgus monkey TG2 was obtained from Trenzyme. Surface plasmon resonance (SPR) was measured on a Biacore T200 instrument (GE Healthcare). CM5 chips (GE Healthcare cat. no.: BR-1006-68) were coated with monoclonal mouse anti-human IgG1 (Fc) (MAH) antibody (GE Healthcare cat. no.: BR-1008-39) by amine-coupling as described in the manufacturers instructions. HBS-EP+ buffer (0.01 M HEPES, 0.15 M NaCl, 3 mM EDTA, 0.05% v/v Surfactant P20) and HBS-P+ buffer (0.01 M HEPES, 0.15 M NaCl, 0.05% Surfactant P20) were purchased from GE Healthcare as 10× stocks (cat. nos.: BR-1006-69 and BR-1006-71). Calcium Chloride solution was obtained from Sigma Aldrich (cat. no.:21115).
(§2) The method employed to determine the affinity of the anti-TG2 antibodies involved the capture of the chimeric or humanised antibodies on a MAH coated CM5 chip, followed by the injection of a series of TG2 samples in running buffer. The running buffer was 1×HBS-P+ containing 1 mM CaCl2, or 1×HBS-EP+ for calcium-free experiments. Antibody capture was carried out for a contact time of 120 seconds at a flow rate of 10 μl/min resulting in the capture of approximately 40-80 RU. TG2 was injected over the immobilised antibody at concentrations ranging from 25 nM to 400 nM with a contact time up to 600 seconds at a flow rate of 30 μl/min. Dissociation of TG2 was typically measured for up to 5400 seconds (1.5 hours). Regeneration of the chip was then performed using 3 M MgCl2, for a contact time of 60 seconds at a flow rate of […], followed by a 300 s stabilisation period before the next sample. For each of human and cynomolgus monkey TG2, at least 5 injections at a variety of concentrations were performed in at least two separate experiments.
(§3) Kinetic data were exported from the Biacore T200 Evaluation Software and analysed using GraphPad Prism, where the association phases and dissociation phases were analysed separately using a one phase association model and one-phase exponential decay model respectively. Association rates (kon) were calculated for each curve individually, and dissociation rates (koff) values from the long dissociation phase data collected. Where koff values were calculated to be <1×10^−5 s^−1, values were set at 1×10^−5 for analysis, as rates slower than this could not be estimated accurately. Values for kon and koff are presented in the tables below as the mean of the individual calculated values for each antibody for each TG2 species from multiple concentrations +/−1 standard deviation. KD values are calculated as mean koff/mean kon.

Molecule	koff	kon
B1	<10^−5 s^−1	320000 M⁻¹ s⁻¹
B2	<10^−5 s^−1	240000 M⁻¹ s⁻¹
B3	<10^−5 s^−1	190000 M⁻¹ s⁻¹
B4	2.4e-05 s⁻¹	200000 M⁻¹ s⁻¹

System: WI-38 cells
Assay: Scratch wound assay in WI-38 cells
Type: cell-based, human
Settings: serum free media; Cytochalasin D 0.1 μM, R281 100 μM, Z DON 10 μM and 100 μM, Cub7402 5 μg/ml
Protocol: WI-38 cells (normal human lung fibroblasts ATCC cat#CCL-75) were plated in a 96 well Image Lock plate (Essen cat#4379) at 2×10^4/well in αMEM media (Life Technologies cat#32561) with 10% FBS and grown O/N to >97% confluence. Cells were washed 2× with αMEM media without serum and a scratch wound was generated using an Essen Wound Maker and the manufacturers protocol. The media was removed and replaced with 95 μl/well serum free media. Controls and test antibodies were added to the wells. The plate was placed in an Essen Incucyte and the closure of the wound was analysed using the scratch wound protocol.
Cytochalasin D was used as an assay control at 0.1 μM. R281, a small molecule non-specific transglutaminase inhibitor, was tested at 100 μM. Z DON, a peptide non reversible transglutaminase inhibitor was tested at 10 μM and 100 μM. The commercially available TG2 antibody Cub7402 (ABcam cat#ab2386) was tested at 5 μg/ml. Antibodies of the invention were tested on at least three occasions at various concentrations as indicated. In all experiments controls were Cytochalasin D at 0.1 uM and ZDON at two concentrations to show a dose dependant effect.

Molecule	effect on wound closure
B1	inhibited wound closure
B3	inhibited wound closure

Biological target: T1, human TG2
Assay: Fluorescence-based transglutaminase assay (dansylated lysine into N,N-dimethylated casein), human TG2
Type: biochemical
Parameters: purchased Zedira GmbH T002
Settings: 1 nM human TG2
Protocol: Transglutaminase activities of purified human (Zedira) or cynomogolus monkey TG2 enzymes (Trenzyme) were measured by incorporation of dansylated lysine K×D (Zedira) into N,N-dimethylated casein (DMC, Sigma). Human or cynomogolus monkey TG2 were diluted in transamidation buffer (25 mM HEPES pH 7.4 containing 250 mM NaCl, 2 mM MgCl2, 5 mM CaCl2, 0.2 mM DTT and 0.05% v/v Pluronic F-127) to 1 nM and 10 nM respectively and mixed with various concentrations of protein-A purified murine, chimeric or humanised TG2 antibodies for 180 min at room temperature in 384-well black microtiter plates (Corning). Reactions were initiated by addition of DMC and K×D to a final concentration of 10 uM and 20 uM respectively and a final reaction volume of 30 ul, and allowed to proceed at RT for 180 min and the increase in fluorescence (RFU) (excitation at 280 nm, emission 550 nm) monitored using a Tecan Safire^2 plate reader. Data were normalised to percentage activity where % activity=(RFU test antibody−RFU low controls)/RFU high controls−RFU low controls)×100, where low controls contained all components except enzyme and high controls contained all components except antibody.
Antibody dose response curves were plotted using GraphPad prism software and fitted using a 4-parameter logistical model to return IC50 and other statistical parameters. The results are illustrated in FIGS. 29 to 33.

Molecule	inhibition of human TG2 transamidation (in words)
B1	potent inhibition of TG2 activity in the low nanomolar range
B2	potent inhibition of TG2 activity in the low nanomolar range
B3	potent inhibition of TG2 activity in the low nanomolar range
B4	potent inhibition of TG2 activity in the low nanomolar range

Biological target: T1, human TG2
Assay: ELISA assay for TG2 binding, human TG2
Parameters: purchased Zedira GmbH T002
Settings: not given
Protocol: Antibody binding to human and cynomolgus monkey TG2 was determined in an ELISA assay. Clear polystyrene “Maxisorp” 96-well plates (Nunc) were coated with 50 ng purified human or cynomogulus monkey TG2 in 50 μl 0.05 M carbonate-bicarbonate buffer pH 9.6 at 4° C. overnight. Control wells were coated with 50 μl 100 μg/ml bovine serum albumin (BSA). Plates were washed 3× with 300 μl phosphate-buffered saline pH7.4 (PBS) containing 0.1% Tween 20 (PBST) and blocked with 300 μl 3% w/v Marvel skimmed milk in PBS for 1 hour at room temperature. After 3× wash with PBST, 50 μl protein-A purified chimeric or humanised anti-TG2 antibodies or human IgG1 kappa isotope control antibody or CUB7402 (Abcam) were serially diluted 4-fold from a top concentration of 50 nM in PBS, and added to the plate in duplicate. […] After 3× washes with PBST, the plates were developed with 50 μl TMB substrate (Sigma) for 5 min at room temperature before stopping the reaction with 25 μl 0.5M H2SO4 and reading absorbance at 450 nm in a microtiter plate reader (BioTek EL808). Dose response curves were analysed and EC50 values and other statistical parameters determined using a 4-parameter logistical fit of the data (GraphPad Prism).

Molecule	ELISA binding to human TG2 (in words)
B2	comparable EC50 values
B4	comparable EC50 values

System: Cynomolgus TG2
Assay: Biacore (SPR) affinity, cynomolgus TG2
Type: binding, cynomolgus monkey
Settings: +Ca^2+ (1 mM CaCl2 running buffer; includes rows without a Ca mark)
Protocol: as §1, §2, §3

Molecule	koff	kon
B1	<10^−5 s^−1	420000 M⁻¹ s⁻¹
B2	3.7e-05 s⁻¹	270000 M⁻¹ s⁻¹
B3	3.4e-05 s⁻¹	140000 M⁻¹ s⁻¹
B4	1.8e-05 s⁻¹	160000 M⁻¹ s⁻¹
